Laboratory results published in the supplement of paper PMC6757056.
± gives the standard deviation of the averaged measurements.

B1: library; a variant is named by its letters at N, in order (parent)
chain: GCUGUCACCGGUGCUUGGUACGUUAUAUUCAGCCGGUCUGAUGAGUCUNNNNNNAGACGAAACAGC

Assays:
[1] = variants of: B1; test: FACS-Seq fitted mean relative fluorescence mCherry/BFP without ligand (log10 relative fluorescence); HEK293T overexpressing SLC46A1; higher = higher reporter protein expression; settings: without (6R,S)-folinic acid; ligand present: no
How it was run: (§1)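 Genomic DNA from 6 mCherry/BFP sort bins was PCR-amplified, barcoded and sequenced on MiSeq. The sorted cells were enriched HEK293T libraries, lentivirally transduced with a ribozyme-switch mCherry reporter and an EF1α-BFP marker, incubated with or without ligand for 48 h. Fluorescence derives from a normal fit to the bin counts. The fit was on log10(mCherry/BFP), and means were scaled to five spiked-in control ribozymes.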

[2] = variants of: B1; test: normalized RNA/DNA level without ligand (relative to sTRSVctl = 100) (log10 (% of sTRSVctl)); HEK293T overexpressing SLC46A1; higher = less ribozyme self-cleavage, higher mRNA level; settings: without (6R,S)-folinic acid; ligand present: no
How it was run: (§2)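 Only sequences with at least 100 DNA reads were analyzed, from HEK293T cells transfected with 4 µg per 6-well well of ribozyme switch library plasmids 72 h before RNA extraction with EDTA. Any ligand was added 1 h before transfection. RNA level was defined as RNA over DNA reads, normalized to a spiked-in non-cleaving sequence or to the top sequences, then scaled and log-transformed. The top set was 25 sequences, and the scaling was ×100 followed by log10.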

[3] = variants of: B1; test: FACS-Seq fitted mean relative fluorescence mCherry/BFP with ligand (log10 relative fluorescence); HEK293T overexpressing SLC46A1; ligand concentration (+) FACS-Seq: 6 mM; higher = higher reporter protein expression; settings: with (6R,S)-folinic acid; ligand present: yes
How it was run: as §1

[4] = variants of: B1; test: normalized RNA/DNA level with ligand (relative to sTRSVctl = 100) (log10 (% of sTRSVctl)); HEK293T overexpressing SLC46A1; ligand concentration (+) RNA-Seq: 6 mM; higher = less ribozyme self-cleavage, higher mRNA level; settings: with (6R,S)-folinic acid; ligand present: yes
How it was run: as §2

| Variant | FACS-Seq fitted mean (log10) [1] | normalized RNA/DNA level without ligand (log10) [2] | FACS-Seq fitted mean (log10) [3] | normalized RNA/DNA level with ligand (log10) [4] |
| --- | --- | --- | --- | --- |
| GAACGC | 0.22 ± 0.11 | 1.946 ± 0.0053 | 0.118 ± 0.03 | 1.99 ± 0.022 |
| UUUAUC |  | 2.103 ± 0.0028 |  | 2.065 ± 0.016 |
| GGCACU | -0.00197 ± 0.025 | 2.08 ± 0.04 | -0.0531 ± 0.17 | 2.02 ± 0.036 |
| GGCACA |  | 2.085 ± 0.009 |  | 2.03 ± 0.031 |
| GGCACC | 0.275 ± 0.084 | 2.018 ± 0.0066 | -0.0119 ± 0.33 | 2.017 ± 0.0025 |
| ACAACA | 0.197 ± 0.026 | 2.032 ± 0.003 | 0.27 ± 0.24 | 2.03 ± 0.04 |
| AUGAGU | 0.287 ± 0.0094 | 1.788 ± 0.017 | 0.639 ± 0.18 | 1.97 ± 0.04 |
| UUAUGA | 0.0124 ± 0.043 | 1.9284 ± 0.0007 | -0.0229 ± 0.25 | 2.01 ± 0.027 |
| GGCCGG |  | 2.08 ± 0.021 |  | 2.051 ± 0.015 |
| GCAAAA | 0.327 ± 0.023 | 1.989 ± 0.0033 | 0.174 ± 0.032 | 2 ± 0.051 |
| AGCGCG |  | 1.972 ± 0.019 |  | 2 ± 0.037 |
| GCAAGG | 0.437 ± 0.041 | 1.957 ± 0.007 | 0.376 ± 0.13 | 2.04 ± 0.049 |
| GUUGAG | 0.527 ± 0.087 | 1.89 ± 0.02 | 0.542 ± 0.36 | 2.028 ± 0.013 |
| ACAAUA | 0.486 ± 0.011 | 1.981 ± 0.0063 | 0.509 ± 0.16 | 2.004 ± 0.02 |
| UUAAAA | 0.578 ± 0.062 | 1.9319 ± 0.0016 | 0.669 ± 0.26 | 1.966 ± 0.017 |
| CUCGAA |  | 1.994 ± 0.009 |  | 1.988 ± 0.018 |
| AUGCGU | 0.523 ± 0.16 | 1.951 ± 0.016 | 0.63 ± 0.3 | 1.99 ± 0.031 |
| GUCCAG | 0.335 ± 0.07 | 1.966 ± 0.011 | 0.103 ± 0.16 | 1.975 ± 0.018 |
| AGUUGC | 0.455 ± 0.088 | 2.001 ± 0.0034 | 0.705 ± 0.23 | 2.03 ± 0.016 |
| GAACAA | 0.694 ± 0.2 | 1.976 ± 0.013 | 0.571 ± 0.25 | 2 ± 0.033 |
| UACGCA |  | 1.992 ± 0.013 |  | 2.03 ± 0.037 |
| UACGUG | 0.0454 ± 0.021 | 1.7 ± 0.018 | 0.518 ± 0.16 | 1.946 ± 0.011 |
| AGGAUA | 0.115 ± 0.081 | 1.945 ± 0.0066 | 0.116 ± 0.17 | 2 ± 0.049 |
| CAUUAC | 0.716 ± 0.11 | 1.984 ± 0.003 | 0.484 ± 0.06 | 1.98 ± 0.036 |
| UUUGCG | 0.0287 ± 0.045 | 1.867 ± 0.0062 | 0.0548 ± 0.11 | 1.98 ± 0.042 |
| CACGAU | 0.217 ± 0.11 | 1.99 ± 0.027 | 0.334 ± 0.6 | 2.01 ± 0.021 |
| GAUGUA | 0.1 ± 0.0045 | 1.937 ± 0.004 | 0.322 ± 0.11 | 2.001 ± 0.02 |

| Variant | FACS-Seq fitted mean (log10) [1] | normalized RNA/DNA level without ligand (log10) [2] | FACS-Seq fitted mean (log10) [3] | normalized RNA/DNA level with ligand (log10) [4] |
| --- | --- | --- | --- | --- |
| UUCGGU |  | 1.962 ± 0.013 |  | 2 ± 0.021 |
| AGUAGC |  | 1.986 ± 8.8e-05 |  | 2 ± 0.039 |
| UACGAG | 0.31 ± 0.029 | 1.689 ± 0.014 | 0.472 ± 0.14 | 1.953 ± 0.013 |
| ACAGCG | 0.271 ± 0.031 | 1.82 ± 0.023 | 0.411 ± 0.034 | 2.01 ± 0.031 |
| UACCUU |  | 2.02 ± 0.0067 |  | 2.046 ± 0.014 |
| GAUUAG | -0.00141 ± 0.0098 | 1.95 ± 0.0067 | -0.175 ± 0.038 | 2.005 ± 0.013 |
| UGCUGA | 0.285 ± 0.21 | 2.02 ± 0.024 | 0.321 ± 0.12 | 2.05 ± 0.043 |
| AAUCAG | 0.0995 ± 0.041 | 1.969 ± 0.0032 | 0.228 ± 0.25 | 2.02 ± 0.045 |
| GGGAUG | 0.385 ± 0.017 | 1.974 ± 0.017 | 0.354 ± 0.025 | 2.04 ± 0.028 |
| ACUCAU | 0.258 ± 0.022 | 2.013 ± 0.0051 | 0.187 ± 0.11 | 2.04 ± 0.029 |
| ACUCAG |  | 1.967 ± 0.0061 |  | 1.98 ± 0.036 |
| GUUGUG | 0.391 ± 0.14 | 1.879 ± 0.0056 | 0.458 ± 0.072 | 2.01 ± 0.023 |
| CCUAGC | 0.339 ± 0.022 | 2.075 ± 0.011 | 0.3 ± 0.46 | 2.053 ± 0.006 |
| UGUACU | 0.366 ± 0.027 | 1.99 ± 0.026 | 0.253 ± 0.17 | 2.021 ± 0.0023 |
| UGAAAC | 0.4232 ± 0.0017 | 1.946 ± 0.0065 | 0.578 ± 0.21 | 2 ± 0.042 |
| GUUGCU | 0.299 ± 0.016 | 2.02 ± 0.023 | 0.44 ± 0.32 | 2.008 ± 0.018 |
| UGUGAA | 0.186 ± 0.034 | 1.899 ± 0.015 | 0.243 ± 0.25 | 1.984 ± 0.012 |
| CCAAAA | 0.502 ± 0.074 | 1.971 ± 0.0043 | 0.496 ± 0.19 | 1.96 ± 0.022 |
| ACGGCA | 0.0556 ± 0.13 | 2.02 ± 0.026 | 0.139 ± 0.39 | 2.04 ± 0.029 |
| CCUGGU |  | 2.044 ± 0.0037 |  | 2.088 ± 0.011 |
| AUUAAA | 0.22 ± 0.063 | 1.974 ± 0.0062 | 0.296 ± 0.21 | 1.992 ± 0.0089 |
| UAUAAU | 0.283 ± 0.048 | 1.941 ± 0.0058 | 0.412 ± 0.033 | 1.996 ± 0.016 |
| ACUUAG | 0.58 ± 0.02 | 1.93 ± 0.0033 | 0.402 ± 0.071 | 1.978 ± 0.0025 |
| CUAGGU | 0.652 ± 0.16 | 2.024 ± 0.0033 | 0.694 ± 0.027 | 2.05 ± 0.028 |
| AAGUGU | 0.173 ± 0.16 | 1.94 ± 0.015 | 0.597 ± 0.37 | 2.01 ± 0.029 |
| UCGGUU | 0.629 ± 0.068 | 2.033 ± 0.0021 | 0.695 ± 0.2 | 2.06 ± 0.023 |
| UUUGGU |  | 1.953 ± 0.013 |  | 1.98 ± 0.071 |

| Variant | FACS-Seq fitted mean (log10) [1] | normalized RNA/DNA level without ligand (log10) [2] | FACS-Seq fitted mean (log10) [3] | normalized RNA/DNA level with ligand (log10) [4] |
| --- | --- | --- | --- | --- |
| GAGUCA | -0.101 ± 0.0028 | 1.998 ± 0.011 | -0.24 ± 0.16 | 2.01 ± 0.0086 |
| GAGUUG | 0.407 ± 0.032 | 1.968 ± 0.0093 | 0.387 ± 0.15 | 2.03 ± 0.039 |
| AUACCA | -0.158 ± 0.032 | 2.036 ± 0.01 | -0.268 ± 0.23 | 2.01 ± 0.043 |
| UUUUAG | 0.393 ± 0.03 | 1.836 ± 0.0045 | 0.488 ± 0.26 | 1.97 ± 0.051 |
| AGAAAU |  | 2.026 ± 0.0034 |  | 2.01 ± 0.044 |
| CACACA | 0.66 ± 0.12 | 1.97 ± 0.026 | 0.319 ± 0.036 | 1.98 ± 0.031 |
| GGCUUU |  | 2.079 ± 0.0033 |  | 2.041 ± 0.013 |
| GUCGGG |  | 1.998 ± 0.011 |  | 2.05 ± 0.051 |
| UUGAGG | 0.275 ± 0.1 | 1.86 ± 0.025 | 0.336 ± 0.18 | 2.006 ± 0.0026 |
| GCCGAG | 0.418 ± 0.066 | 1.968 ± 0.005 | 0.538 ± 0.22 | 2.016 ± 0.02 |
| GCCGAA | 0.247 ± 0.078 | 2.011 ± 0.0054 | 0.486 ± 0.16 | 2.05 ± 0.022 |
| CAACAC |  | 2.0222 ± 0.00082 |  | 2.014 ± 0.019 |
| GCACAA | -0.45 ± 0.18 | 1.9848 ± 8e-05 | -1.15 ± 0.17 | 2 ± 0.039 |
| ACAGGC |  | 2.03 ± 0.021 |  | 2.01 ± 0.032 |
| AUGGUG | 0.433 ± 0.026 | 1.786 ± 0.011 | 0.485 ± 0.12 | 2.01 ± 0.024 |
| UGUUCC | 0.382 ± 0.066 | 2.05 ± 0.023 | 0.146 ± 0.006 | 2.05 ± 0.062 |
| CUCUAA |  | 1.997 ± 0.017 |  | 2.01 ± 0.044 |
| ACCGAG | 0.326 ± 0.018 | 1.893 ± 0.018 | 0.47 ± 0.072 | 2.01 ± 0.024 |
| GAUUGA | 0.422 ± 0.12 | 1.999 ± 0.019 | 0.519 ± 0.3 | 2.02 ± 0.048 |
| CCUCCC |  | 2.095 ± 0.016 |  | 2.0404 ± 0.0018 |
| AUAUAG | 0.309 ± 0.028 | 1.91 ± 0.021 | 0.295 ± 0.25 | 2 ± 0.022 |
| ACGUUU | -0.149 ± 0.046 | 2.004 ± 0.015 | -0.00103 ± 0.41 | 2.025 ± 0.015 |
| GAAUGG | 0.297 ± 0.079 | 1.89 ± 0.013 | 0.386 ± 0.37 | 2.03 ± 0.019 |
| UUUCCA |  | 2.009 ± 0.0042 |  | 2.01 ± 0.027 |
| GUACAC | 0.175 ± 0.17 | 1.984 ± 0.01 | 0.311 ± 0.16 | 2.029 ± 0.019 |
